Patent US20130171217A1, “ENZYMATIC PERACID GENERATION FOR USE IN SKIN CARE PRODUCTS” (E I DU PONT DE NEMOURS AND COMPANY, priority 2010, published 2013)

What was measured:
[1] = PAA generation with different perhydrolases and substrates, HPLC Karst assay; format: biochemical
Description: HC1121 is a CE-7 class carbohydrate esterase from Thermotoga maritima (C2775-HC263; SEQ ID NO: 288), and HC1169 is an aryl esterase from M. smegmatis (ArE-HC263; SEQ ID NO: 323). Both enzymes were tested for their perhydrolytic activity with substrates triacetin or propylene glycol diacetate (PGDA, Aldrich 528072) and hydrogen peroxide between pH 5 and pH 7.2. Enzyme free reactions for some reaction conditions were run to determine the non-enzymatic generation of peracetic acid as well. At the end of reaction, the reaction was quenched by acidification 10 or 25 fold with 100 mM H3PO4. The quenched samples were filtered using a NANOSEP® MF centrifugal device (30K Molecular Weight Cutoff (MWCO), Pall Life Sciences, Ann Arbor, Mich., P/N OD030C35) by centrifugation for 6 min at 12,000 rpm. The filtrates were assayed by HPLC Karst assay in duplicates to determine the amount of peracetic acid (PAA) generated at those reaction conditions.

[2] = One-step enzymatic PAA generation, HPLC peracetic acid assay; format: biochemical
Description: Determination of the peracetic acid (PAA) concentration in the reaction mixtures was performed according to the method described by Pinkernell et al., Anal. Chem. 1997, 69(17):3623-3627. Aliquots (0.040 mL) of the reaction mixture were removed at predetermined times and mixed with 0.960 mL of 5 mM phosphoric acid in water; adjustment of the pH of the diluted sample to less than pH 4 immediately terminated the reaction. The resulting solution was filtered using an ULTRAFREE® MC-filter unit (30,000 Normal Molecular Weight Limit (NMWL), Millipore cat #UFC3LKT 00) by centrifugation for 2 min at 12,000 rpm. An aliquot (0.100 mL) of the resulting filtrate was transferred to 1.5-mL screw cap HPLC vial (Agilent Technologies, Palo Alto, Calif.; #5182-0715) containing 0.300 mL of deionized water, then 0.100 mL of 20 mM MTS (methyl-p-tolyl-sulfide) in acetonitrile was added, the vials capped, and the contents briefly mixed prior to a 10 min incubation at ca. 25° C. in the absence of light. To each vial was then added 0.400 mL of acetonitrile and 0.100 mL of a solution of triphenylphosphine (TPP, 40 mM) in acetonitrile, the vials re-capped, and the resulting solution mixed and incubated at ca. 25° C. for 30 min in the absence of light. To each vial was then added 0.100 mL of 10 mM N,N-diethyl-m-toluamide (DEET; HPLC external standard) and the resulting solution analyzed by HPLC (Waters Alliance 2695, Waters Corporation; MA).
Supelco Discovery C8 column (10 cm×4.0-mm, 5 μm) (cat. #569422-U) w/precolumn Supelco Supelguard Discovery C8 (Sigma-Aldrich; cat #59590-U); 10 microliter injection volume; gradient method with CH3CN (Sigma-Aldrich; #270717) and deionized water at 1.0 mL/min and ambient temperature:
The first method (referred to herein as the “one-step approach”) comprises combining different amounts of at least one CE-7 perhydrolase with triacetin (an example of a suitable ester substrate) and hydrogen peroxide to generate peracetic acid. Hair bundles were inserted into “one step approach” solutions for 15 min immediately after mixing the enzyme solution with triacetin solution (final concentration was about 100 mM) and H2O2 solution (final concentration was about 250 mM). The hair samples were rinsed with water and dried. The method was repeated for another 15 times (total application was 16 times). In one experiment, two perhydrolase enzymes were used, i.e., untargeted T. maritima variant C277S (“C277S”; “PAH”; SEQ ID NO: 293) and “C277S-HC263” (SEQ ID NO: 288). The concentration of peracetic acid in solution after 15 min was evaluated by HPLC.

[3] = 10 μg/mL enzyme, 250 mM triacetin, 100 mM H2O2, 20% LUBRIDERM® in pH 7.2, 100 mM phosphate buffer, 60 min

B1: C277S-HC263: C277S variant of Thermotoga maritima perhydrolase fused via a flexible linker to hair-binding domain HC263 (protein)
chain: MAFFDLPLEELKKYRPERYEEKDFDEFWEETLAESEKFPLDPVFERMESHLKTVEAYDVTFSGYRGQRIKGWLLVPKLEEEKLPCVVQYIGYNGGRGFPHDWLFWPSMGYICFVMDTRGQGSGWLKGDTPDYPEGPVDPQYPGFMTRGILDPRTYYYRRVFTDAVRAVEAAASFPQVDQERIVIAGGSQGGGIALAVSALSKKAKALLCDVPFLCHFRRAVQLVDTHPYAEITNFLKTHRDKEEIVFRTLSYFDGVNFAARAKIPALFSVGLMDNISPPSTVFAAYNYYAGPKEIRIYPYNNHEGGGSFQAVEQVKFLKKLFEKGGPGSGGAGSPGSAGGPGSPSAQSQLPDKHSGLHERAPQRYGPEPEPEPEPIPEPPKEAPVVIEKPKPKPKPKPKPPAHDHKNQKETHQRHAAGSGGGGSPHHHHHH
PAA [1, 3]: 4451 ppm
PAA ([1]; 50 μg/mL enzyme, 100 mM triacetin, 250 mM H2O2, pH 5, 50 mM citrate buffer, 5 min): 277 ppm
PAA ([1]; 50 μg/mL enzyme, 100 mM triacetin, 250 mM H2O2, pH 5.6, 50 mM citrate buffer, 5 min): 1222 ppm
PAA ([1]; 50 μg/mL enzyme, 100 mM triacetin, 250 mM H2O2, pH 6, 50 mM citrate buffer, 5 min): 2350 ppm
PAA ([1]; 50 μg/mL enzyme, 100 mM triacetin, 250 mM H2O2, pH 6.6, 50 mM citrate-phosphate buffer, 5 min): 4067 ppm
PAA ([1]; 50 μg/mL enzyme, 100 mM triacetin, 250 mM H2O2, pH 7, 50 mM pyrophosphate buffer, 5 min): 4832 ppm
PAA generated ([2]; 0.05 mg/mL enzyme): about 0.2 wt %
PAA ([2]; 0.05 mg/mL enzyme, urea 0 wt %, after 15 min): 1983 ppm
PAA ([2]; 0.25 mg/mL enzyme, urea 0 wt %, after 15 min): 3948 ppm
PAA ([2]; 0.5 mg/mL enzyme, urea 0 wt %, ~100 mM triacetin, ~250 mM H2O2, after 15 min): 4132 ppm
perhydrolase activity lower than C277S ([2]; same weight basis, under testing condition): 2-3 times

B2: C277S: non-targeted C277S variant of the Thermotoga maritima perhydrolase, un-targeted control (protein, listed as Thermotoga maritima)
chain: MAFFDLPLEELKKYRPERYEEKDFDEFWEETLAESEKFPLDPVFERMESHLKTVEAYDVTFSGYRGQRIKGWLLVPKLEEEKLPCVVQYIGYNGGRGFPHDWLFWPSMGYICFVMDTRGQGSGWLKGDTPDYPEGPVDPQYPGFMTRGILDPRTYYYRRVFTDAVRAVEAAASFPQVDQERIVIAGGSQGGGIALAVSALSKKAKALLCDVPFLCHFRRAVQLVDTHPYAEITNFLKTHRDKEEIVFRTLSYFDGVNFAARAKIPALFSVGLMDNISPPSTVFAAYNYYAGPKEIRIYPYNNHEGGGSFQAVEQVKFLKKLFEKG
PAA ([2]; 0.05 mg/mL enzyme, urea 10 wt %, after 15 min): 6448 ppm
PAA ([2]; 0.25 mg/mL enzyme, urea 10 wt %, after 15 min): 14053 ppm
PAA ([2]; 0.5 mg/mL enzyme, urea 10 wt %, after 15 min): 13656 ppm

B3: SEQ ID NO: 323: S54V variant of the aryl esterase from Mycobacterium smegmatis fused to hair binding domain HC263 via a flexible linker (protein)
chain: MAKRILCFGDSLTWGWVPVEDGAPTERFAPDVRWTGVLAQQLGADFEVIEEGLVARTTNIDDPTDPRLNGASYLPSCLATHLPLDLVIIMLGTNDTKAYFRRTPLDIALGMSVLVTQVLTSAGGVGTTYPAPKVLVVSPPPLAPMPHPWFQLIFEGGEQKTTELARVYSALASFMKVPFFDAGSVISTDGVDGIHFTEANNRDLGVALAEQVRSLLGPGSGGAGSPGSAGGPGSPSAQSQLPDKHSGLHERAPQRYGPEPEPEPEPIPEPPKEAPVVIEKPKPKPKPKPKPPAHDHKNQKETHQRHAAGSGGGGSPHHHHHH
PAA ([1]; 10 μg/mL enzyme, 250 mM PGDA, 100 mM H2O2, pH 5, 100 mM citrate buffer, 30 min): 4158 ppm
PAA ([1]; 10 μg/mL enzyme, 250 mM PGDA, 100 mM H2O2, pH 5.6, 100 mM citrate buffer, 30 min): 4482 ppm
PAA ([1]; 10 μg/mL enzyme, 250 mM PGDA, 100 mM H2O2, pH 6, 100 mM citrate buffer, 30 min): 4647 ppm
PAA ([1]; 10 μg/mL enzyme, 250 mM PGDA, 100 mM H2O2, pH 6.6, 100 mM phosphate buffer, 30 min): 4608 ppm
PAA ([1]; 10 μg/mL enzyme, 250 mM PGDA, 100 mM H2O2, pH 7.2, 100 mM phosphate buffer, 30 min): 4450 ppm
PAA [1, 3]: 3433 ppm
PAA ([1]; 20 μg/mL enzyme, 250 mM PGDA, 100 mM H2O2, pH 5, 100 mM citrate buffer, 30 min): 4140 ppm
PAA ([1]; 20 μg/mL enzyme, 250 mM PGDA, 100 mM H2O2, pH 5.6, 100 mM citrate buffer, 30 min): 4403 ppm
PAA ([1]; 20 μg/mL enzyme, 250 mM PGDA, 100 mM H2O2, pH 6, 100 mM citrate buffer, 30 min): 4609 ppm
PAA ([1]; 20 μg/mL enzyme, 250 mM PGDA, 100 mM H2O2, pH 6.6, 100 mM phosphate buffer, 30 min): 4526 ppm
PAA ([1]; 20 μg/mL enzyme, 250 mM PGDA, 100 mM H2O2, pH 7.2, 100 mM phosphate buffer, 30 min): 4726 ppm
PAA ([1]; 20 μg/mL enzyme, 250 mM triacetin, 100 mM H2O2, pH 5, 100 mM citrate buffer, 30 min): 3680 ppm
PAA ([1]; 20 μg/mL enzyme, 250 mM triacetin, 100 mM H2O2, pH 5.6, 100 mM citrate buffer, 30 min): 4429 ppm
PAA ([1]; 20 μg/mL enzyme, 250 mM triacetin, 100 mM H2O2, pH 6, 100 mM citrate buffer, 30 min): 4616 ppm
PAA ([1]; 20 μg/mL enzyme, 250 mM triacetin, 100 mM H2O2, pH 6.6, 100 mM phosphate buffer, 30 min): 4488 ppm
PAA ([1]; 20 μg/mL enzyme, 250 mM triacetin, 100 mM H2O2, pH 7.2, 100 mM phosphate buffer, 30 min): 4812 ppm
